Assay [1] concerns the target T1, human CD25 (IL-2Rα) (human, UniProt P01589 22-213).
T1 chain: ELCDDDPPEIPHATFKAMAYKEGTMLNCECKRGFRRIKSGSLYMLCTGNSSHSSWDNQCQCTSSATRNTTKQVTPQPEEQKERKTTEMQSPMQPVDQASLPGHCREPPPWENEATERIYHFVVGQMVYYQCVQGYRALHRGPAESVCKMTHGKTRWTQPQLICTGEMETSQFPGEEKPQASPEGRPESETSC
In words: Octet. For orientation: Biolayer interferometry detects binding as a change in optical thickness at a sensor tip.

Assay [2] has as its target CD122:CD132. As to the kind of experiment: Octet.
For assay [3], the target named is T1, human CD25 (IL-2Rα). In words: Biacore; pH 7.4. (In SPR one partner is held on a chip, and binding of the other changes the refractive index at the surface.)
The target of assay [4] is T1, human CD25 (IL-2Rα). In words: Biacore; pH 6.0.
In assay [5] the target is T1, human CD25 (IL-2Rα). In words: Biacore; pH 7.4.
Assay [6] concerns the target T1, human CD25 (IL-2Rα). In words: Biacore; pH 6.0.

B1: XENP26109 (Fc fusion)
chain 1: EPKSSDKTHTCPPCPAPPVAGPSVFLFPPKPKDTLMISRTPEVTCVVVDVKHEDPEVKFNWYVDGVEVHNAKTKPREEEYNSTYRVVSVLTVLHQDWLNGKEYKCKVSNKALPAPIEKTISKAKGQPREPQVYTLPPSREEMTKNQVSLTCDVSGFYPSDIAVEWESDGQPENNYKTTPPVLDSDGSFFLYSKLTVDKSRWEQGDVFSCSVMHEALHNHYTQKSLSLSPGK
chain 2: APASSSTKKTQLQLEHLLLNLQMILNGINNYKNPKLTRMLTFKFYMPKKATELKHLQCLEEELKPLEEVLKLAQSKNFHLRPRDLISNINVIVLELKGSETTFMCEYADETATIVEFLNRWITFSQSIISTLTEPKSSDKTHTCPPCPAPPVAGPSVFLFPPKPKDTLMISRTPEVTCVVVDVKHEDPEVKFNWYVDGVEVHNAKTKPREEQYNSTYRVVSVLTVLHQDWLNGKEYKCKVSNKALPAPIEKTISKAKGQPREPQVYTLPPSREQMTKNQVKLTCLVKGFYPSDIAVEWESNGQPENNYKTTPPVLDSDGSFFLYSKLTVDKSRWQQGNVFSCSVMHEALHNHYTQKSLSLSPGK
Broadly, the Kd is the equilibrium constant for the complex coming apart. A lower Kd goes with tighter binding. B1: the Kd in assay [1] came out at 28.5 nM; in assay [2], 57.3 nM.

B2: 14192 R38E T41K C125S (protein)
chain: APTSSSTKKTQLQLEHLLLDLQMILNGINNYKNPKLTEMLKFKFYMPKKATELKHLQCLEEELKPLEEVLNLAQSKNFHLRPRDLISNINVIVLELKGSETTFMCEYADETATIVEFLNRWITFSQSIISTLT
With B2, the dissociation constant Kd came out at 172 nM in assay [3] and 31.1 nM in assay [4].

B3: 14209 T41Q F42Y C125S (protein)
chain: APTSSSTKKTQLQLEHLLLDLQMILNGINNYKNPKLTRMLQYKFYMPKKATELKHLQCLEEELKPLEEVLNLAQSKNFHLRPRDLISNINVIVLELKGSETTFMCEYADETATIVEFLNRWITFSQSIISTLT
B3 yielded a Kd in assay [5] of 5950 nM.

B4: 14202 R38Q T41S C125S (protein)
chain: APTSSSTKKTQLQLEHLLLDLQMILNGINNYKNPKLTQMLSFKFYMPKKATELKHLQCLEEELKPLEEVLNLAQSKNFHLRPRDLISNINVIVLELKGSETTFMCEYADETATIVEFLNRWITFSQSIISTLT
On to B4, for which the dissociation constant (Kd) came out at 1240 nM in assay [3] and 1710 nM in assay [4].

B5: 14194 R38N T41Q C125S (protein)
chain: APTSSSTKKTQLQLEHLLLDLQMILNGINNYKNPKLTNMLQFKFYMPKKATELKHLQCLEEELKPLEEVLNLAQSKNFHLRPRDLISNINVIVLELKGSETTFMCEYADETATIVEFLNRWITFSQSIISTLT
As to B5, binding in assay [4] was characterised by a dissociation constant (Kd) of 84.6 nM.

B6: 14217 R38P T41R C125S (protein)
chain: APTSSSTKKTQLQLEHLLLDLQMILNGINNYKNPKLTPMLRFKFYMPKKATELKHLQCLEEELKPLEEVLNLAQSKNFHLRPRDLISNINVIVLELKGSETTFMCEYADETATIVEFLNRWITFSQSIISTLT
In turn, B6 came in with a Kd in assay [5] of 326 nM.

B7: XENP14214 (R38N T41R C125S) (protein)
chain: APTSSSTKKTQLQLEHLLLDLQMILNGINNYKNPKLTNMLRFKFYMPKKATELKHLQCLEEELKPLEEVLNLAQSKNFHLRPRDLISNINVIVLELKGSETTFMCEYADETATIVEFLNRWITFSQSIISTLT
B7 showed a dissociation constant (Kd) in assay [6] of 57200 nM. This counts as double-digit micromolar.

B8: 14208 T41M F42Y C125S (protein)
chain: APTSSSTKKTQLQLEHLLLDLQMILNGINNYKNPKLTRMLMYKFYMPKKATELKHLQCLEEELKPLEEVLNLAQSKNFHLRPRDLISNINVIVLELKGSETTFMCEYADETATIVEFLNRWITFSQSIISTLT
Consider B8, for which binding in assay [5] was put at a Kd of 81 nM.

B9: 14214 R38N T41R C125S (protein)
chain: APTSSSTKKTQLQLEHLLLDLQMILNGINNYKNPKLTNMLRFKFYMPKKATELKHLQCLEEELKPLEEVLNLAQSKNFHLRPRDLISNINVIVLELKGSETTFMCEYADETATIVEFLNRWITFSQSIISTLT
Turning to B9, the equilibrium dissociation constant (Kd) in assay [5] is 149 nM.

B10: XENP14216 (R38V T41R C125S) (protein)
chain: APTSSSTKKTQLQLEHLLLDLQMILNGINNYKNPKLTVMLRFKFYMPKKATELKHLQCLEEELKPLEEVLNLAQSKNFHLRPRDLISNINVIVLELKGSETTFMCEYADETATIVEFLNRWITFSQSIISTLT
Take B10: the equilibrium dissociation constant (Kd) in assay [6] was found to be 128 nM.

B11: XENP14208 (T41M F42Y C125S) (protein)
chain: APTSSSTKKTQLQLEHLLLDLQMILNGINNYKNPKLTRMLMYKFYMPKKATELKHLQCLEEELKPLEEVLNLAQSKNFHLRPRDLISNINVIVLELKGSETTFMCEYADETATIVEFLNRWITFSQSIISTLT
Molecule B11 displayed a Kd in assay [6] of 83 nM.

B12: XENP14217 (R38P T41R C125S) (protein)
chain: APTSSSTKKTQLQLEHLLLDLQMILNGINNYKNPKLTPMLRFKFYMPKKATELKHLQCLEEELKPLEEVLNLAQSKNFHLRPRDLISNINVIVLELKGSETTFMCEYADETATIVEFLNRWITFSQSIISTLT
In turn, B12 yielded a Kd in assay [6] of 1710 nM.

B13: 14190 R38Q T41K C125S (protein)
chain: APTSSSTKKTQLQLEHLLLDLQMILNGINNYKNPKLTQMLKFKFYMPKKATELKHLQCLEEELKPLEEVLNLAQSKNFHLRPRDLISNINVIVLELKGSETTFMCEYADETATIVEFLNRWITFSQSIISTLT
In the case of B13, the figures for the Kd in assay [3] and in assay [4] were 98.3 nM and 489 nM, respectively.

B14: XENP14206 (T41E F42Y C125S) (protein)
chain: APTSSSTKKTQLQLEHLLLDLQMILNGINNYKNPKLTRMLEYKFYMPKKATELKHLQCLEEELKPLEEVLNLAQSKNFHLRPRDLISNINVIVLELKGSETTFMCEYADETATIVEFLNRWITFSQSIISTLT
Molecule B14 came in with a Kd in assay [6] of 30300 nM. In other words, the double-digit micromolar range.

B15: 14206 T41E F42Y C125S (protein)
chain: APTSSSTKKTQLQLEHLLLDLQMILNGINNYKNPKLTRMLEYKFYMPKKATELKHLQCLEEELKPLEEVLNLAQSKNFHLRPRDLISNINVIVLELKGSETTFMCEYADETATIVEFLNRWITFSQSIISTLT
With B15, binding in assay [5] was characterised by a dissociation constant (Kd) of 280 nM.

B16: 14193 R38Q T41R C125S (protein)
chain: APTSSSTKKTQLQLEHLLLDLQMILNGINNYKNPKLTQMLRFKFYMPKKATELKHLQCLEEELKPLEEVLNLAQSKNFHLRPRDLISNINVIVLELKGSETTFMCEYADETATIVEFLNRWITFSQSIISTLT
On to B16, for which the Kd in assay [3] stood at 458 nM; in assay [4] it was 533 nM.

B17: 14213 R38Q F42Y C125S (protein)
chain: APTSSSTKKTQLQLEHLLLDLQMILNGINNYKNPKLTQMLTYKFYMPKKATELKHLQCLEEELKPLEEVLNLAQSKNFHLRPRDLISNINVIVLELKGSETTFMCEYADETATIVEFLNRWITFSQSIISTLT
With B17, the Kd in assay [5] stood at 1110 nM.

B18: 14191 R38Q T41Q C125S (protein)
chain: APTSSSTKKTQLQLEHLLLDLQMILNGINNYKNPKLTQMLQFKFYMPKKATELKHLQCLEEELKPLEEVLNLAQSKNFHLRPRDLISNINVIVLELKGSETTFMCEYADETATIVEFLNRWITFSQSIISTLT
Consider B18, for which the results for the equilibrium dissociation constant (Kd) in assay [3] and in assay [4] were 196 nM and 2470 nM, respectively.

B19: 14216 R38V T41R C125S (protein)
chain: APTSSSTKKTQLQLEHLLLDLQMILNGINNYKNPKLTVMLRFKFYMPKKATELKHLQCLEEELKPLEEVLNLAQSKNFHLRPRDLISNINVIVLELKGSETTFMCEYADETATIVEFLNRWITFSQSIISTLT
In assay [5], B19 yielded an equilibrium dissociation constant (Kd) of 214 nM.

B20: XENP14213 (R38Q F42Y C125S) (protein)
chain: APTSSSTKKTQLQLEHLLLDLQMILNGINNYKNPKLTQMLTYKFYMPKKATELKHLQCLEEELKPLEEVLNLAQSKNFHLRPRDLISNINVIVLELKGSETTFMCEYADETATIVEFLNRWITFSQSIISTLT
As to B20, in assay [6], the affinity, expressed as Kd, was 2430 nM.

B21: 14207 T41D F42Y C125S (protein)
chain: APTSSSTKKTQLQLEHLLLDLQMILNGINNYKNPKLTRMLDYKFYMPKKATELKHLQCLEEELKPLEEVLNLAQSKNFHLRPRDLISNINVIVLELKGSETTFMCEYADETATIVEFLNRWITFSQSIISTLT
In assay [5], B21 gave a Kd of 139 nM.

B22: XENP14209 (T41Q F42Y C125S) (protein)
chain: APTSSSTKKTQLQLEHLLLDLQMILNGINNYKNPKLTRMLQYKFYMPKKATELKHLQCLEEELKPLEEVLNLAQSKNFHLRPRDLISNINVIVLELKGSETTFMCEYADETATIVEFLNRWITFSQSIISTLT
In assay [6], B22 gave a Kd of 2630 nM.

B23: 14215 R38N T41K C125S (protein)
chain: APTSSSTKKTQLQLEHLLLDLQMILNGINNYKNPKLTNMLKFKFYMPKKATELKHLQCLEEELKPLEEVLNLAQSKNFHLRPRDLISNINVIVLELKGSETTFMCEYADETATIVEFLNRWITFSQSIISTLT
B23 showed a Kd in assay [5] of 75.4 nM.

B24: XENP14207 (T41D F42Y C125S) (protein)
chain: APTSSSTKKTQLQLEHLLLDLQMILNGINNYKNPKLTRMLDYKFYMPKKATELKHLQCLEEELKPLEEVLNLAQSKNFHLRPRDLISNINVIVLELKGSETTFMCEYADETATIVEFLNRWITFSQSIISTLT
Regarding B24, the dissociation constant Kd in assay [6] was 319 nM.

Values taken from patent publication US20250092108A1 (published 2025).
